Results from patent US9181296B2, “Stabilized liquid enzyme compositions” (NOVOZYMES A/S, priority 2008, dated 2015).

Biological target: T1, Protease (Savinase 16.0 LEX) (Lederbergia lenta, UniProt P29600)
T1 construct: purchased Novozymes Savinase 16.0 LEX
T1 sequence (P29600 1-269): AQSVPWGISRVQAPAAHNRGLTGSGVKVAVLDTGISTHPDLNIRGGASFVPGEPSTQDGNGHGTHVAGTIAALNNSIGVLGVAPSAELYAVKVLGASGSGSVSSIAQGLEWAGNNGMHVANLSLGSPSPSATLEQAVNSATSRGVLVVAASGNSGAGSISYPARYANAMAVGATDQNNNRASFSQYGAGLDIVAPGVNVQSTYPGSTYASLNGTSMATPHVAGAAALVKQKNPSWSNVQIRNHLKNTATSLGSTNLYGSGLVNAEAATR
Assay: Storage stability of protease in liquid detergent N with stabilizer (Example 3)
Type: biochemical
Settings: 1 week 40° C.
Method: Peptide aldehydes Z-GAF-H, Z-GAL-H and Z-GAY-H were produced by peptide synthesis, all with a purity >80%. The peptide aldehydes were dissolved in DMSO to a concentration of 10 mg/ml before use.
The following detergent N with enzymes was prepared:
The following detergents with stabilizer according to the invention were prepared and normalized to 100 g of detergent:
The detergents were placed in closed glasses at 40° C. Residual activity of protease was measured (by comparison to a reference stored at −18° C.) after 1 week, using standard enzyme analytical methods (protease measured by hydrolysis of N,N-dimethylcasein at 40° C., pH 8.3).

## Z-GAY-H
Compared with Z-GAL-H and Z-GAF-H in detergent N
  Molar surplus of inhibitor relative to protease needed to reach the same residual activities as the other peptide aldehydes: approximately half
Detergent N
  Efficiency for stabilizing the protease (in words): most efficient
